These results are taken from PMC9651861 (Science Advances, 2022).

The target of this test is T1, human serum albumin (Homo sapiens, UniProt P02768).
T1 construct: also called HSA
Description: BLI. As to conditions: both partners purified.

B1: DesAb-RBD-C2 (VHH)
VHH: EVQLEESGGGLVQPGGSLRLSCAASGFNIKDTYIGWVRQAPGKGEEWVASIYPTSGYTRYADSVKGRFTISADTSKNTAYLQMNSLRAEDTAVYYCAAGSVVADLSVEEFDYWGQGTLVTVSS
As for B1, the binding result is “no binding”.

B2: DesAb-RBD-C1 (VHH)
VHH: EVQLEESGGGLVQPGGSLRLSCAASGFNIKDTYIGWVRQAPGKGEEWVASIYPTSGYTRYADSVKGRFTISADTSKNTAYLQMNSLRAEDTAVYYCAAGSGSSATEVYEEFDYWGQGTLVTVSS
As to B2, the binding result is given as “no binding”.
